Laboratory results: paper PMC4294675 (Molecular Biology of the Cell, 2015)
Blank lines part the entries; values can stand above or below the molecule they belong to.

Legend:
Experiment in all cases: other fluorescence titration
[1] = target: ScPFY(9-Mut) (Saccharomyces cerevisiae) (UniProt P07274)
[2] = target: budding yeast profilin ScPFY (wild type) (Saccharomyces cerevisiae) (UniProt P07274)
[3] = target: fission yeast profilin SpPRF (S. pombe) (UniProt P39825)
Cdc12(FH1) = target: T1, Cdc12(FH1) (fission yeast, UniProt Q10059 740-972)
T1 sequence: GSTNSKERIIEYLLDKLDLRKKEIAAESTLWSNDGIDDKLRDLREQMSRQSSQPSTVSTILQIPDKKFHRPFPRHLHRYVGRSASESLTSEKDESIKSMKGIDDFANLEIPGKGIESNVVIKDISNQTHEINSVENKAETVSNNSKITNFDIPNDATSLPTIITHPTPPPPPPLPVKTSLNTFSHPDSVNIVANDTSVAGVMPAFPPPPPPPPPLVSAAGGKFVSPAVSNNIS

fission yeast profilin SpPRF (S. pombe), sequence (P39825 whole entry): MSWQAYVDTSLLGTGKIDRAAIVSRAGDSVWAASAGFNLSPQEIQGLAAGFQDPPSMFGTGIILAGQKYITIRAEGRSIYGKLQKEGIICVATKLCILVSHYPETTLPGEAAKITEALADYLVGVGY

Kd [1]: 195 µM
Kd [2]: 224 µM
Kd [3]: 59 µM
Molecule: poly-L-proline (peptide)

Kd (Cdc12(FH1)): 24.7 µM
B1: budding yeast profilin ScPFY (wild type) (natural protein)
chain: MSWQAYTDNLIGTGKVDKAVIYSRAGDAVWATSGGLSLQPNEIGEIVQGFDNPAGLQSNGLHIQGQKFMLLRADDRSIYGRHDAEGVVCVRTKQTVIIAHYPPTVQAGEATKIVEQLADYLIGVQY

Kd [1]: 22.7 µM
B2: Cdc12(FH1) (domain or fragment)
chain: T1 sequence
